Measured values as given in publication PMC10249358 (2023).

B1: NOP53(192–207) peptide displayed on M13 phage [human] / GST-tagged merlin FERM domain [human] (parent complex)
chain 1: FYDLWASDNPLDRPLV
chain 2: FTVRIVTMDAEMEFNCEMKWKGKDLFDLVCRTLGLRETWFFGLQYTIKDTVAWLKMDKKVLDHDVSKEEPVTFHFLAKFYPENAEEELVQEITQHLFFLQVKKQILDEKIYCPPEASVLLASYAVQAKYGDYDPSVHKRGFLAQEELLPKRVINLYQMTPEMWEERITAWYAEHRGRARDEAEMEYLKIAQDLEMYGVNYFAIRNKKGTELLLGVDALGLHIYDPENRLTPKISFPWNEIRNISYSDKEFTIKPLDKKIDVFKFNSSKLRVNKLILQLCIGNHDLFMRRRK
B2: FAM83G(111–126) peptide displayed on M13 phage [human] / GST-tagged merlin FERM domain [human] (parent complex)
chain 1: AEPLPSLEYWPQKSDR
chain 2: B1 chain 2

Variants of: B1
Experiment: clonal phage ELISA; ratio of A450 on immobilized GST-merlin to A450 on GST, normalized to 100% of WT peptide; no-peptide phage control est. 32%; read off a plot

Point of comparison: chain 1 R13A, percent of parent ~97 % binding. Against it:
- chain 1 D8A — higher, ~110 % binding
- chain 1 D8K — lower, ~94 % binding
- chain 1 P10K — lower, ~26 % binding
- chain 1 D12A — lower, ~24 % binding
- chain 1 Y2K — lower, ~16 % binding
- chain 1 L11K — lower, ~14 % binding
- chain 1 L15K — lower, ~16 % binding
- chain 1 V16K — lower, ~61 % binding
- chain 1 L4K — lower, ~29 % binding
- chain 1 W5K — lower, ~31 % binding
- chain 1 A6K — lower, ~59 % binding
- chain 1 F1K — lower, ~29 % binding
- chain 1 P14K — lower, ~50 % binding
- chain 1 S7A — higher, ~120 % binding
- chain 1 D3K — lower, ~33 % binding
- chain 1 D3A — lower, ~29 % binding
- chain 1 N9A — lower, ~93 % binding

Variants of: B2
Experiment: clonal phage ELISA; ratio of A450 on immobilized GST-merlin to A450 on GST, normalized to 100% of WT peptide; no-peptide phage control est. 29%; read off a plot

Point of comparison: chain 1 P11K, percent of parent ~19 % binding. Against it:
- chain 1 L7K — higher, ~84 % binding
- chain 1 R16A — higher, ~99 % binding
- chain 1 L4K — higher, ~86 % binding
- chain 1 S14A — higher, ~98 % binding
- chain 1 D15A — higher, ~110 % binding
- chain 1 Y9D — lower, ~13 % binding
- chain 1 Y9K — higher, ~21 % binding
- chain 1 S6E — higher, ~88 % binding
- chain 1 W10K — higher, ~23 % binding
- chain 1 K13A — higher, ~91 % binding
- chain 1 K13D — higher, ~81 % binding
- chain 1 E8A — lower, ~17 % binding
- chain 1 Q12A — higher, ~76 % binding
- chain 1 P5K — higher, ~68 % binding
